The source of these data is patent publication US20210070872A1 (AGENUS, published 2021).

Assay [1] has as its target T1, V1M cynomolgus GITR on 1624-5 cells (cynomolgus monkey, UniProt Q9Y5U5 26-241 (human entry)).
T1 chain: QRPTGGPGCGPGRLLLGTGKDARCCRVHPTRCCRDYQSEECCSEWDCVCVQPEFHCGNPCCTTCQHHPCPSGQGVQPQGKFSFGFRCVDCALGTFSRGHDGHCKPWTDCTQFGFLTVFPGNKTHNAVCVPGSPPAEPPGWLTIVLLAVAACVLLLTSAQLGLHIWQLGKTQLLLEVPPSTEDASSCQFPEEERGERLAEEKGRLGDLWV
Kind of assay: flow cytometry on 1624-5 cells.

For assay [2], the target named is T2, V1M/Q62P/S63G cynomolgus GITR on 1624-5 cells (cynomolgus monkey, UniProt Q9Y5U5 26-241 (human entry)).
T2 construct: also called mutant cynomolgus GITR V1M/Q62P/S63G
T2 chain: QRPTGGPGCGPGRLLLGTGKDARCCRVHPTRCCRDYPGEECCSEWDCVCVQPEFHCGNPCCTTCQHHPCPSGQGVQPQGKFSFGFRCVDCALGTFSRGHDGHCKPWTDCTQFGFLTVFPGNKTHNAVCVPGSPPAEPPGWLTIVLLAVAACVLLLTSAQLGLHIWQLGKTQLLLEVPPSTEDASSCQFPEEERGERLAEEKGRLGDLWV
Kind of assay: flow cytometry on 1624-5 cells, 2 µg/ml.

The target in assay [3] is T3, human GITR D60A mutant on 1624-5 cells (human, UniProt Q9Y5U5 26-241).
T3 chain: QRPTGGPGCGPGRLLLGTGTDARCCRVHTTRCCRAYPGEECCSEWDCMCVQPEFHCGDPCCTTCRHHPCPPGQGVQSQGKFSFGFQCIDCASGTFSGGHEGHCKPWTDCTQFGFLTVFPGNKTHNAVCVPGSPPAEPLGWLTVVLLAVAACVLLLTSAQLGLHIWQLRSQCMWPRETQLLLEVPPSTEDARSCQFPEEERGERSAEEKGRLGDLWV
Kind of assay: flow cytometry on 1624-5 cells, 2 µg/ml, MFI ratio to polyclonal antibody. Here is the method: (§1) An average MFI ratio (“AMFI ratio”) was calculated based on the individual MFI ratios for all the mutants. FIG. 34A is a table summarizing the binding of Hum231#2, three germline variants (pab1967, pab1975 and pab1979) and the reference antibody m6C8 to1624-5 cells expressing human GITR alanine mutants. An individual MFI ratio that is above 60% of the AMFI ratio is considered to indicate similar binding, after normalization, of that of the polyclonal antibody and is represented by “+” in FIG. 34A. An individual MFI ratio that is between 30% and 60% of the AMFI ratio is represented by “+/−” in FIG. 34A. An individual MFI ratio that is below 30% of the AMFI ratio is represented by “−” in FIG. 34A.
(§2) All the mean fluorescence intensity (MFI) values were calculated as the mean of two measurements. […] The percentage of binding of an antibody to the GITR alanine mutants relative to the wild type GITR was calculated by dividing a particular MFI ratio for the GITR alanine mutants by the corresponding MFI ratio for the wild type (e.g., dividing MFI ratio_{Hum231#2, D60A} by MFI ratio_{Hum231#2, WT}). The percentage of reduction in binding was determined by calculating, e.g., 100%*(1−(MFI ratio_{Hum231#2, D60A}/MFI ratio_{Hum231#2, WT})).

Assay [4] addresses T4, human GITR G63A mutant on 1624-5 cells (human, UniProt Q9Y5U5 26-241).
T4 chain: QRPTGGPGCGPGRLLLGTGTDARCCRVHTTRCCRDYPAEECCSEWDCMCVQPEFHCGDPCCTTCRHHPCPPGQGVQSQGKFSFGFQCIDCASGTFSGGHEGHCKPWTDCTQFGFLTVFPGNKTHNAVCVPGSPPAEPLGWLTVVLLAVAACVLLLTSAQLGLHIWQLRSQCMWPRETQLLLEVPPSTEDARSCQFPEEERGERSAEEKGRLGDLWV
The description is as above. Here is the method:
as §1, §2

Assay [5] concerns the target T5, GITR antigen (R&D systems, di-sulfide-linked homodimer; 689-GR) (human, UniProt Q9Y5U5 26-161).
T5 construct: Bought
T5 sequence: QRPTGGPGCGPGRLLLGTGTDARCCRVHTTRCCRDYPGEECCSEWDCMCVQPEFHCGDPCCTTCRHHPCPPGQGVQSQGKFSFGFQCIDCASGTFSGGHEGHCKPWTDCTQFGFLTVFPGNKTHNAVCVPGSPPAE
Kind of assay: SPR (BIAcore T100/T200), antibody captured via anti-human Fab, GITR antigen 40/10/2.5 nM, 1:1 model. How it is done: All interactions were analyzed at 25° C. using 1× DPBS (PAA, H15-002) plus P20 (0.05%, Pierce, 28320) as running buffer. Anti-GITR antibodies (8 μg/ml in running buffer) were captured to the chip surface of a CM5 sensor chip (GE Healthcare, Series S CM5, BR-1005-30) via an immobilized anti-human Fab antibody (GE Healthcare, Fab Capture Kit, 28958325). To detect unspecific interactions of the GITR antigen, antibody capture was only performed in flow cell 2, whereas in flow cell 1 only the capturing antibody was immobilized. In addition, an unrelated antibody (anti-IL-1β; SK48E26; International Publication No. WO 95/001997) was used to assess specificity of GITR binding. After capture of the anti-GITR antibodies GITR antigen (R&D systems, di-sulfide-linked homodimer; 689-GR) was run through both flow cells in different amounts (40 nM, 10 nM and 2.5 nM) for each antibody. Also a blank curve (running buffer only) was included in each run. Association was run for 90 s and dissociation for 600 s with a flow rate of 10 μl/min. After each run a regeneration step was performed with 10 mM Glycine pH2.0 (GE Healthcare, BR-1003-55) for 60 s with 30 μl/min. Binding curves were evaluated using BIAcore® T200 evaluation software version 2.0.1 applying a Langmuir 1:1 model with global fit of Rmax.

B1: chimeric parental 231-32-15 antibody (antibody, human IgG1, V domains shown)
VH: QVQLLQSGTELVRPGVSVKISCKGSGYTFTDYAMYWVKQSHAKSLEWIGVIRTYSGDVTYNQKFKDKATMTVDKSSSIAYMELARLSSEDSAIYYCAKSGTVRGFAYWGQGTLVTVSS
VL: DIVMTQSPSSLTVTAGEKVIMSCKSSQSLLNSGNQKNYLTWYQQKPGQPPKLLIYWASTRESGVPDRFTGSGSGTDFTLTISSVQAEDLAVYHCQNDYSYPYTFGGGTKLEIK
notes: Murine variable regions on human IgG1 (CH1-2-3) and human kappa constant regions; T109S (Kabat) in the light chain constant domain
In the case of B1, the binding result in assay [1] is given as “no binding (tested: 2 µg/ml)”. For the same molecule, the binding result in assay [2] is on record as “binds”. Further, the “percent reduction in binding relative to wild type human GITR” value in assay [3] was 82%. Also, in assay [4], the “percent reduction in binding relative to wild type human GITR” value stood at 37%. For the same molecule, in assay [5], the Kd amounted to 2.02 nM, the dissociation rate constant (koff) stood at 0.000712 s⁻¹ and the on-rate constant (kon) was 352000 M⁻¹ s⁻¹.

B2: Hum231#2 (antibody, human IgG1, V domains shown)
VH: QVQLVQSGAEVKKPGASVKVSCKGSGYTFTDYAMYWVRQAPGQGLEWIGVIRTYSGDVTYNQKFKDRATMTVDKSISTAYMELSRLRSDDTAVYYCAKSGTVRGFAYWGQGTLVTVSS
VL: DIVMTQSPDSLAVSLGERATINCKSSQSLLNSGNQKNYLTWYQQKPGQPPKLLIYWASTRESGVPDRFSGSGSGTDFTLTISSLQAEDVAVYHCQNDYSYPYTFGQGTKLEIKR
notes: Human IgG1 with T109S (Kabat) in the light chain constant domain; also called humanized variant Hum231#2 (IGHV1-2*02 and IGK4-1*01)
As for B2, the binding result is recorded as “no binding (tested: 2 µg/ml)” in assay [1] and “binds” in assay [2]. Besides, the “percent reduction in binding relative to wild type human GITR” value in assay [3] turned out to be 88%; in assay [4], 59%. This molecule also displayed a Kd in assay [5] of 0.629 nM. The molecule further showed an off-rate (koff) in assay [5] of 0.00178 s⁻¹. Also, the kon in assay [5] came out at 2.83e+06 M⁻¹ s⁻¹.
